These results are taken from patent US20260132200A1 (Regeneron, published 2026).

Substitutions are numbered along the chain they refer to.

Experiment [1] has as its target T1, cynomolgus monkey CD3 on monkey T cells (CD2+CD4+ cells of cynomolgus PBMCs) (cynomolgus monkey, UniProt Q95LI5 22-198).
T1 construct: whole, on cells; also called mkT cells; monkey PBMCs
As to the kind of experiment: FACS on cynomolgus PBMCs, CD2+CD4+ T cells. Here is the method:
(§1) CD20×CD3 bispecific antibodies and Control constructs, as set forth in Example 1, were tested via FACS for their ability to bind to Jurkat (CD3+, CD20− human T-cell line), Raji (CD3−, CD20+ Human B-cell line), or cynomolgus PBMCs (“mkT cells”).
(§2) FACS data was acquired using the following protocol: Cells at 2×10⁵ per well were incubated with serially diluted antibodies for 30 min on ice. Post incubation, cells were washed and appropriate secondary (Jurkat, RAJI cells) or cocktail of secondary antibodies (for cyno PBMC) was added and incubated for an additional 30 minutes. After incubation, cells were washed, re-suspended in cold PBS containing 1% BSA and analyzed by flow cytometry on a BD FACS Canto II. Jurkat and Raji cells were gated by side and forward scatters, while cynomolgus T cells were also gated in a CD2+CD4+ population. The EC₅₀s for cell binding titration were determined using Prism software with values calculated using a 4-parameter non-linear regression analysis.

The target of experiment [2] is T2, human CD3 expressed on cells (Jurkat, a CD3+ human T-cell line; human T cells) (human, UniProt P07766 23-126; P04234 22-100).
T2 construct: also called FACS JURKAT
T2 chain 1: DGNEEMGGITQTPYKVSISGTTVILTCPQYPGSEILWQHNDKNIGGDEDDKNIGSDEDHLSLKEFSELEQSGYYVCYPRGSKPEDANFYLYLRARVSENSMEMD
T2 chain 2: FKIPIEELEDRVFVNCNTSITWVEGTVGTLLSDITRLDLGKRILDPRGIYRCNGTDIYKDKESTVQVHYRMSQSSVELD
Description: FACS on Jurkat cells. How it is done: as §1, §2

For experiment [3], the target named is T3, human CD20 expressed on Raji cells (CD3-, CD20+ human B-cell line) (human, UniProt P11836 1-297).
T3 sequence: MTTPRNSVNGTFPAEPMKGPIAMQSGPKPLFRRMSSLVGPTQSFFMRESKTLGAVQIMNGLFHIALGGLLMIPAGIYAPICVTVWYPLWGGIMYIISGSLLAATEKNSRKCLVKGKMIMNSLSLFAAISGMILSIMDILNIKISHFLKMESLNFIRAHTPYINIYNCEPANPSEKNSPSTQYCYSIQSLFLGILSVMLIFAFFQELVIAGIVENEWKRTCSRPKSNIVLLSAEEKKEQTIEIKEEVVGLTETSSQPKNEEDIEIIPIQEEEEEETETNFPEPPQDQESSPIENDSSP
As to the kind of experiment: cell-based or functional assay.

Experiment [4] addresses T4, Soluble heterodimeric CD3 protein (hCD3-epsilon/hCD3-delta) with either a human Fc tag (hFcΔAdp/hFc) or a … (human, UniProt P07766 23-126; P04234 22-100).
T4 construct: Soluble construct; not shown: Fc tag: human (hFcΔAdp/hFc)
T4 chain 1: T2 chain 1
T4 chain 2: T2 chain 2
Description: SPR Biacore 25C antigen-capture. How it is done:
(§3) Measurements were conducted on a T200 Biacore instrument.
In the antigen-capture format, heterodimeric CD3 protein was captured using a rabbit anti-mouse Fc or mouse anti-human Fc and the respective antibodies were injected over the captured antigen.
(§4) Kinetic association (kₐ) and dissociation (kd) rate constants were determined by processing and fitting the data to a 1:1 binding model using Scrubber 2.0 curve fitting software. Binding dissociation equilibrium constants (KD) and dissociative half-lives (t_{1/2}) were calculated from the kinetic rate constants as: KD (M)=kd/kₐ; and t_{1/2} (min) (ln 2/(60*kd). NT=not tested; NB=no binding observed.
(In SPR one partner is held on a chip, and binding of the other changes the refractive index at the surface.)

The target in experiment [5] is T4, Soluble heterodimeric CD3 protein …. As to the kind of experiment: SPR Biacore 25C antibody-capture. How it is done: as §3
Heterodimeric CD3 protein was purified using the method described in Davis et al. (US2010/0331527).
as §4

T1 sequence (Q95LI5 22-198): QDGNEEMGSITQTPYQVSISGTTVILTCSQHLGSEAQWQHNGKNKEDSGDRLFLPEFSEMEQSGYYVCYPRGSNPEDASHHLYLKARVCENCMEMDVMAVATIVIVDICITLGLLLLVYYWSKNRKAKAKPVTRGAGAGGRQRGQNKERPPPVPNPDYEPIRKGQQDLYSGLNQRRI

B1: Control IV: monoclonal anti-CD20 antibody 3B9-10 (antibody, V domains shown)
VH: EVQLVESGGGLVQPGRSLRLSCVASGFTFNDYAMHWVRQAPGKGLEWVSVISWNSDSIGYADSVKGRFTISRDNAKNSLYLQMHSLRAEDTALYYCAKDNHYGSGSYYYYQYGMDVWGQGTTVTVSS
VL: EIVMTQSPATLSVSPGERATLSCRASQSVSSNLAWYQQKPGQAPRLLIYGTSTRATGIPARFSGSGSGTEFTLTISSLQSEDFAVYYCQQYNNWPLTFGGGTKVEIK
notes: also called Control IV (anti-CD20)
On to B1, for which the binding result in experiment [1] is “no binding”. Also, the binding result in experiment [2] was “no binding”. Moreover, in experiment [3], the “CDC EC50, Raji” value was determined as 0.247 nM; the “CDC EC50, Raji SCID1” value came out at 51.9 nM; the “CDC EC50, Raji SCID2” value stood at 0.229 nM; the “CDC EC50, Raji SCID3” value is 5.71 nM. Further, the “CDC EC50, Raji SCID4” value in experiment [3] turned out to be 1.14 nM.

B2: H2M2776N (antibody, V domains shown)
VH: QVQLVESGGGVVQPGRSLRLSCAASGFTFRSFGMHWVRQAPGRGLEWVAMIYFDGKNKYYADSVRGRFTISRDNSKNTLYLEMSSLRAEDTAVYFCARGPGYNWLDPWGQGTLVTVSS
VL: B1 VL with A19V, T20I, V29I, S31R, T51A, S52T, I58V, Y86F, W94R, K103E
notes: mouse IgG2 Fc, human variable regions
For B2, in experiment [4], the Kd was 0.14 nM, the “T½” value was determined as 52 min, the koff is 0.000222 s⁻¹ and the kon stood at 1.58e+06 M⁻¹ s⁻¹. In experiment [5], this molecule came in with a Kd of 10.2 nM, a koff of 0.000639 s⁻¹ and a kon of 62900 M⁻¹ s⁻¹.

Usually Kd stands for a measure of binding affinity in units of concentration. In general, koff refers to the first-order rate constant of dissociation. The term kon denotes the rate constant with which the complex forms.
